Test [1] has as its system hES cell derived neural progenitors. As to the kind of experiment: Directed differentiation of neural progenitors towards a midbrain fate; scoring of TH+ clumps and TH+ neurons. It is filed as cell-based, human. The conditions noted are these: for effect on the proportion of TH+ clumps: added at 10 ng/ml to IBMX, Forskolin, PMA, dopamine and AA. An excerpt:
Neurospheres that were generated from noggin treated ES cell colonies as described above (Example 1) were propagated 21-35 days in NPM supplemented with FGF-2 and EGF. At this point the spheres were chopped into small clumps (2000-3000 cells per clump). FGF-2 and EGF were removed from the medium and the progenitors were directed to take a midbrain fate by treatment with various factors for 6-8 days. During treatment with the various factors the clumps were either cultured in suspension or plated on poly-D-lysine and laminin. The factors included. FGF1, FGF8, FGF17 (R&D Systems) at concentrations of 100-200 ng/ml SHH (R&D Systems) at 0.5-1 μg/ml. Other signal transduction inducers: cAMP inducers: IBMX (Sigma, 0.25 mM), forskolin (Sigma 50 μM), PKC inducers PMA (Sigma 200 nM) and dopamine (Sigma 20 μM) were also used. The medium was also supplemented with the survival factors Ascorbic acid (AA) (Sigma) at concentration of 400-800 μM and NT4 (R&D Systems) at concentration of 20 ng/ml. The medium was changed every other day. To induce further differentiation into neurons, the spheres were again disaggregated into small clumps and plated on poly-D-lysine (30-70 kDa. 10 μg/ml, Sigma) and laminin (4 μg/ml, Sigma) and cultured in NPM in the absence of the factors and in the presence of AA with or without NT4 for 5-10 days. Differentiated cells were analysed by indirect immunofluorescence (as described in example 1) for the expression of β-tubulin type III (Sigma, 1:1000-3000) Tyrosine hydroxylase (TH) (Sigma anti mouse monoclonal, 1:250-500 and Pel-Freez anti rabbit polyclonal, 1:50-100) dopamine transporter (DAT;_Chemicon; rabbit polyclobal 1:50-100) and Nurr1 (Santa Cruz, Calif.; rabbit poly clonal 1:100-200). The proportion of clumps of cells that were comprised of a significant number of TH+ cells (>50 cells) was scored. Double immunostaining for TH and β-tubulin type III was used to analyse the percentage of cells within clumps expressing TH from the total number of neurons β-tubulin type III+cells). Multiple confocal microscopy images of consecutive planes through the clump were projected into one image for this analysis (FIG. 14) Ten-fifteen random fields were analysed.

Test [2] concerns human ES cells (HES-1 cell line). Kind of test: Noggin-directed differentiation of hES cell colonies on feeders; immunophenotype of derived spheres and rosette areas. It is filed as cell-based. The protocol:
To derive enriched preparations of neural progenitors, differentiation of human ES cells was directed into neural fate by transfer of undifferentiated hES cell clumps onto fresh feeders and culture in a modified hES cell medium with reduced serum concentration and in the presence of the BMP antagonist noggin. Specifically, human ES cells (HES-1 cell line, Reubinoff et al 2000, PCT/AU99/00990) with a stable normal (46XX) karyotype were cultured on mitomycin C mitotically inactivated mouse embryonic fibroblast feeder layer in gelatine coated tissue culture dishes as previously described (Reubinoff et al., 2000 PCT/AU99/00990 and PCT/AU01/00278). To induce differentiation, at the usual passage, clumps of undifferentiated ES cells were plated on fresh feeders and cultured in the usual hES medium supplemented with 10% serum (instead of 20%) and 500 ng/ml of noggin (R&D systems). Noggin (500 ng/ml) was further added to the medium every other day throughout a 6-8 day culture period (3-4 administrations). After 6-8 days, noggin was omitted and the cells were further cultured in the modified medium with 10% serum for additional 4-6 days. At this time about 12-14 days, about 70% of the colonies differentiated mostly into areas that were comprised of tightly packed small cells with a uniform grey opaque appearance under dark field stereo microscope (FIG. 1a, PCT/AU01/00278, PCT/AU01/00735). Other colonies differentiated into areas with structures that could resemble primitive neural rosettes (FIG. 1b).
Clumps of about 150 cells were mechanically isolated by using the razor-sharp edge of a micro glass pipette or a razor blade from the grey opaque areas and replated in serum-free medium supplemented with human recombinant FGF-2 and EGF. Specifically, the clusters of cells were transferred to plastic tissue culture dishes containing neural progenitors growth medium (NPM) that consisted of DMEM/F12 (1:1), B27 supplementation (1:50), glutamine 2 mM, penicillin 50 u/ml and streptomycin 50 μg/ml (Gibco), and supplemented with 20 ng/ml human recombinant epidermal growth factor (EGF), and 20 ng/ml fibroblast growth factor 2 (FGF2) (R & D Systems, Inc., Minneapolis, Minn.). Under these culture conditions the clumps formed free floating spherical structures within 24 hours and sequential propagation and expansion of the sphere cultures was possible as previously described (Reubinoff at al., 2001, PCT/AU01/00278) for prolonged periods (6 months).
During the initial weeks in culture, the spheres gradually acquired a uniform morphology (FIG. 3 A,B). A detailed analysis of marker expression by the cell within the spheres was conducted at 3-4, 8 and 12 weeks after derivation. The spheres were disaggregated into single cells that were plated, fixed and analysed by fluorescent immunohistochemistry for the expression of the early neural markers N-CAM, A2B5, PSA-NCAM and nestin. A high proportion of the cells expressed these markers (N-CAM 83±4% A2B5 84±4%, nestin 69±6% PSA-NCAM 74±2%) and the level of expression was stable during the 12 weeks period.
The phenotype of cells within the areas with structures that could resemble primitive neural rosettes (FIG. 1b) was also analyzed. These areas were mechanically dissected, and disaggregated. The cells were plated on laminin and cultured in NPM for two days.
(§1) In general, for the immunophenotyping of disaggregated neural progenitor cells and differentiated neurons, fixation with 4% paraformaldehyde for 20 minutes at room temperature was used unless otherwise specified. It was followed by blocking with 5% heat inactivated goat serum (Dako) and permeabilization with 0.2% Triton X (Sigma) in PBS with 0.1% BSA for 30 minutes. Samples were incubated with the primary antibodies at room temperature for one hour. […]

In test [3] the test system is undifferentiated human ES cell clumps. As to the kind of experiment: hES cell clumps cultured in suspension in NPM+FGF2 with or without noggin; indirect immunofluorescence for neural and non-neural markers. In kind it is cell-based. Particulars: for proportion of cells expressing endodermal and mesodermal markers: noggin 350 and 700 ng/ml versus no noggin, then a week of differentiation. How it is done: In an alternative approach, undifferentiated human ES cell clumps of about 200 cells were transferred into NPM and cultured in suspension in the presence of noggin (350 and 700 ng/ml) for approximately 3 weeks. To further induce neural differentiation, proliferation and prevent the differentiation of neural progenitors the medium was also supplemented with human recombinant FGF-2 (20 ng/ml). LIF (10 ng/ml) was also included in the medium in early experiments. The media was replaced twice a week. Under these culture conditions the clumps of hES cells turned into round spheres within 7 days (FIG. 3 C,D).
To evaluate the effect of these culture conditions, we have evaluated the phenotype of cells within clumps following three weeks of culture. We have examined two concentrations of noggin (350 and 700 ng/ml) in comparison to culture in NPM supplemented with FGF2 in the absence of noggin. The clusters were disaggregated into single cells or small clumps that were plated, cultured for 4 hours on laminin, fixed and analysed by indirect immunofluorescence for the expression of the early neural markers nestin, A2B5 and N-CAM. Markers of endoderm (probably extraembryonic; low molecular weight (LMW) cytokeratin and laminin) and mesoderm (muscle specific actin and desmin) were examined after a week of differentiation. Immunofluorescence methods and source of antibodies are described below in section (C).
To analyse and differentiate between the effect of NPM supplemented with FGF2 and noggin on the differentiation of the hES cell clusters we have characterized and compared the differentiation of these clusters following culture in three different media (FIG. 5): (a) NPM supplemented with b-FGF and noggin (700 ng/ml), (b) the same medium without noggin and (c) knockout (KO) medium. After three weeks of culture a significant difference in the morphology of the clusters was observed. Clusters that were cultured in KO medium had the typical morphology of embryoid bodies (EBs, FIG. 5c). Clusters that were cultured in NPM and FGF2 were characterized by cystic structures and areas of dense cells resembling neural spheres (FIG. 5b). Clusters that were cultured in the presence of noggin had the typical morphology of neural spheres without cystic structures (FIG. 5a).
Clusters that were cultured in NPM with (FIG. 5a) or without noggin (FIG. 5b) were further cultured for an additional 3 weeks in NPM supplemented with FGF2 in the absence of noggin (FIG. 5).
To characterize and compare the phenotype of cells within the clusters following differentiation and propagation at the various culture conditions (FIG. 5), the clusters were disaggregated after 3 weeks in culture into single cells or small clumps that were plated, cultured for 4 hours on laminin, fixed and analysed for the expression of the early neural markers nestin, A2B5, N-CAM, PSA-NCAM and β-tubulin III (FIG. 6). The same analysis was done after additional 3 weeks of culture in NPM supplemented with FGF2 (FIG. 7).
The percentage of cells within the clumps that expressed non-neural markers at 3 weeks (FIG. 8) and 6 weeks (FIG. 9) of the same floating cultures as above was analysed. Indirect immuno fluorescence analysis of the expression of non-neural markers was performed following disaggregation of the clumps and one week of differentiation on laminin.
as §1

For test [4] the test system is unchanged. As to the kind of experiment: RT-PCR of non-neural marker transcripts in noggin treated hES cell clumps. It is filed as cell-based. How it is done: At the RNA level, RT-PCR analysis confirmed that in the noggin treated clumps the expression of the endodermal (probably extraembryonic) marker alpha-fetal protein was reduced/undetectable at 3 weeks. This marker was also undetectable at 6 weeks.
RT-PCR was performed as previously described (Reubinoff et al., 2001). Primer sequences (forward and reverse) and the length of amplified products were as previously described (Reubinoff et al 2001) for alpha-feto-protein and HNF3a and as follows for keratin 8: […]

The mark [5] stands for this setting: spheres derived from noggin treated colonies, 3-4, 8 and 12 weeks after derivation.
[6] abbreviates: three weeks in NPM+FGF2+noggin (700 ng/ml).

For “FGF-1: fibroblast growth factor FGF1 (R&D Systems)”, the “effect on the proportion of TH+ clumps” value in test [1] is given as “did not increase”.
In the case of `O=C1O[C@H]([C@@H](O)CO)C(O)=C1O` [ascorbic acid, reference compound], the “percentage of TH+ neurons from the total number of neurons (β-tubulin type III+ cells)” value in test [1] (confocal microscopy, cellular level) is on record as 45%. Also, the “proportion of TH+ clumps (clumps with >50 TH+ cells)” value in test [1] (factors for 6-8 days after removal of FGF-2 and EGF, then differentiation on poly-D-lysine and laminin with AA) is on record as 35%.

B1: noggin: BMP antagonist noggin (R&D systems) (protein, UniProt Q13253 28-232, looked up)
Noggin: QHYLHIRPAPSDNLPLVDLIEHPDPIFDPKEKDLNETLLRSLLGGHYDPGFMATSPPEDRPGGGGGAAGGAEDLAELDQLLRQRPSGAMPSEIKGLEFSEGLAQGKKQRLSKKLRRKLQMWLWSQTFCPVLYAWNDLGSRFWPRYVKVGSCFSKRSCSVPEGMVCKPSKSVHLTVLRWRCQRRGGQRCGWIPIQYPIISECKCSC
For B1, in test [2] (areas resembling primitive neural rosettes in noggin treated colonies, two days on laminin in NPM), the “cells expressing N-CAM and nestin” value is 95-100%. Besides, the “colonies differentiated mostly into areas of tightly packed small cells” value in test [2] (noggin 500 ng/ml every other day for 6-8 days, 10% serum, on feeders, scored at about 12-14 days) is listed as “about 70%”. Moreover, in test [2] (setting [5]), the “cells expressing A2B5” value is reported as 84±4%, the “cells expressing N-CAM” value is 83±4%, the “cells expressing PSA-NCAM” value is 74±2% and the cells expressing nestin came out at 69±6%. Moreover, the “cells expressing non-neural markers” value in test [3] (after additional 3 weeks of culture in NPM+FGF2 (6 weeks)) is “undetectable or rare”. In test [3] (noggin 700 ng/ml, three weeks), the “percentage of cells expressing nestin and A2B5 versus NPM+FGF2 without noggin” value was “slightly higher”. Also, the “proportion of cells expressing endodermal and mesodermal markers” value in test [3] (three weeks) is listed as “significantly reduced after noggin treatment in a dose dependent manner”. Moreover, in test [3] (three weeks, listed as Noggin), the “proportion of cells expressing endodermal and mesodermal markers” value is “reduced in a dose dependent manner”. Moreover, the “percentage of cells expressing non-neural markers” value in test [3] (noggin treated cultures after 3 weeks, one week of differentiation on laminin) is “significant reduction”. Moreover, in test [3] (setting [6]), the “percentage of cells expressing A2B5” value was 95.6% and the “percentage of cells expressing NCAM” value is on record as 73%. For the same molecule, in test [3] (three weeks in NPM+FGF2+noggin, then additional 3 weeks in NPM+FGF2), the “percentage of cells expressing NCAM” value amounted to 93%. Besides, in test [4] (3 weeks), the “expression of endodermal marker alpha-fetal protein (RT-PCR)” value is given as “reduced/undetectable” and the “expression of transcripts of epidermal marker keratin-14 (RT-PCR)” value was “significantly reduced”. Further, in test [4] (6 weeks), the “expression of endodermal marker HNF3α (RT-PCR)” value was “reduced/undetectable”, the “expression of endodermal marker alpha-fetal protein (RT-PCR)” value is reported as “undetectable” and the “expression of transcripts of epidermal marker keratin-14 (RT-PCR)” value was “undetectable”.

B2: FGF-8: fibroblast growth factor FGF8 (R&D Systems) (protein, UniProt P55075 23-233, looked up)
Fibroblast growth factor 8: QEGPGRGPALGRELASLFRAGREPQGVSQQHVREQSLVTDQLSRRLIRTYQLYSRTSGKHVQVLANKRINAMAEDGDPFAKLIVETDTFGSRVRVRGAETGLYICMNKKGKLIAKSNGKGKDCVFTEIVLENNYTALQNAKYEGWYMAFTRKGRPRKGSKTRQHQREVHFMKRLPRGHHTTEQSLRFEFLNYPPFTRSLRGSQRTWAPEPR
With B2, the “effect on the proportion of TH+ clumps” value in test [1] is reported as “did not increase”.

The values above are taken from patent US10760049B2, “Generation of neural stem cells from undifferentiated human embryonic stem cells” (ES Cell International PTE Ltd., priority 2002, dated 2020).
